From article PMC4081100, “A DNA-binding-site landscape and regulatory network analysis for NAC transcription factors in Arabidopsis thaliana”
Substitutions are numbered along the chain they refer to.

B1: PalNACBS (dsDNA)
DNA 1: CAGTCTTGCGTGTTGGAACACGCAACAGTC
DNA 2: GACTGTTGCGTGTTCCAACACGCAAGACTG
B2: MYB90 WT promoter (dsDNA)
DNA 1: GATCAGGTTCAGCTACGTCACCGATCCAGG
DNA 2: GATCCCTGGATCGGTGACGTAGCTGAACCT
B3: MYB90Synth (Synthetic promoter) (dsDNA)
DNA 1: B2 DNA 1 with C16A, C19A
DNA 2: B2 DNA 2 with G16T, G19T

Experiments:
GST-ANAC092(1-176) = target: T1, GST-ANAC092(1-176) (Arabidopsis thaliana, UniProt Q9FKA0 1-176); experiment: EMSA; EMSA with 75 pM 32P-labelled DNA, binding buffer as in cited refs 7 and 36; oligos annealed in 20 mM Tris-HCl pH 8.0, 20 mM MgCl2; conditions: protein: recombinant, tags: GST, chain copies: 2, label: 32P
T1 sequence: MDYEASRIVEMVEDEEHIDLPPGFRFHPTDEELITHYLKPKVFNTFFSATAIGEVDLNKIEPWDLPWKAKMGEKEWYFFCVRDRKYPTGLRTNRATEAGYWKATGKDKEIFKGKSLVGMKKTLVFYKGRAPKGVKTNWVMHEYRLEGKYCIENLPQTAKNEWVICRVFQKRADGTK

GST-NTL6(1-168) = GST-NTL6(1-168) (Arabidopsis thaliana, UniProt Q9SCK6 1-168); experiment: as above; conditions: protein: recombinant; tags: GST; chain copies: 2; label: 32P; 5' overhangs 4 nt (GATC) on both strands
GST-NTL6(1-168), sequence (Q9SCK6 1-168): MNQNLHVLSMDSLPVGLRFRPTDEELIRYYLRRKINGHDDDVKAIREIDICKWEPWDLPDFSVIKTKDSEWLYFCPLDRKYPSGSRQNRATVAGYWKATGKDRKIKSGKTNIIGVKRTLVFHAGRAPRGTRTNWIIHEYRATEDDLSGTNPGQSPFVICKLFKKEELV

Binder	binding result (GST-ANAC092(1-176); blunt)	binding result (GST-NTL6(1-168))	binding result (GST-ANAC092(1-176); 5' overhangs 4 nt (GATC) on both strands)
B1	binds	–	–
B2	–	no binding	binds
B3	–	binds	–
